Results: patent publication US6958236B2, “Control of gene expression in plants” (priority 2000, dated 2005)

B1: MDV: EcR chimera: Manduca sexta C+D domains, Drosophila melanogaster E domain, VP16 activation domain; SEQ ID NO:63-64 (protein)
chain: MGREELSPASSINGCSTDGEPRRQKKGPAPRQQEELCLVCGDRASGYHYNALTCEGCKGFFRRSVTKNAVYICKFGHACEMDMYMRRKCQECRLKKCLAVGMRPECVVPESTCKNKRREKEAQREKDKLPVSTTTVDDHMPAIMQCDPPPPEAARIHEVVPRFLTEKLMEQNRLKNVTPLSANQKSLIARLVWYQDGYEQPSEEDLRRIMSQPDENESQTDVSFRHITEITILTVQLIVEFAKGLPAFTKIPQEDQITLLKACSSEVMMLRMARRYDHSSDSIFFANNRSYTRDSYKMAGMADNIEDLLHFCRQMFSMKVDNVEYALLTAIVIFSDRPGLEKAQLVEAIQSYYIDTLRIYILNRHCGDSMSLVFYAKLLSILTELRTLGNQNAEMCFSLKLKNRKLPKFLEEIWDVHAIPPKLAPPTDVSLGDELHLDGEDVAMAHADALDDFDLDMLGDGDSPGPGFTPHDSAPYGALDMADFEFEQMFTDALGIDEYGG
B2: LLV: EcR chimera: Locusta migratoria C+D and E domains, VP16; SEQ ID NO:81-82 (protein)
chain: MGREDLSPLSSLNGYSADSCDAKKKKGAAPRQQEELCLVCGDRASGYHYNALTCEGCKGFFRRSITKNAVYQCKYGNNCEIDMYMRRKCQECRLKKCLTVGMRPECVVPEYQCAVKRKEKKAQKDKDKPNSTTNGSPEVMMLKDIDAKVEPERPLSNGIKPVSPEQEELIHRLVYFQNEYESPSEEDLRRVTSQPTEGEDQSDVRFRHITEITILTVQLIVEFAKRLPGFDKLLREDQIALLKACSSEVMMFRMARRYDVNSDSILFANNQPYTKDSYNLAGMGETIEDMLRFCRQMYAMKVDNAEYALLTAIVIFSERPSLVEGWKVEKIQEIYLEALKAYVDNRRRPKSGTIFAKLLSVLTELRTLGNQNSEMCFSLKLKNKKLPPFLAEIWDVIPKLAPPTDVSLGDELHLDGEDVAMAHADALDDFDLDMLGDGDSPGPGFTPHDSAPYGALDMADFEFEQMFTDALGIDEYGG
B3: MLV: EcR chimera: Manduca sexta C+D domains, Locusta migratoria E domain, VP16; SEQ ID NO:85-86 (protein)
chain: MGREELSPASSINGCSTDGEPRRQKKGPAPRQQEELCLVCGDRASGYHYNALTCEGCKGFFRRSVTKNAVYICKFGHACEMDMYMRRKCQECRLKKCLAVGMRPECVVPESTCKNKRREKEAQREKDKLPVSTTTVDDHMPAIMQCDPPPPEAARIHEVVPRFLTEKLMEQNRLKNVTPLSANQKSLIARLVWYQNEYESPSEEDLRRVTSQPTEGEDQSDVRFRHITEITILTVQLIVEFAKRLPGFDKLLREDQIALLKACSSEVMMFRMARRYDVNSDSILFANNQPYTKDSYNLAGMGETIEDMLRFCRQMYAMKVDNAEYALLTAIVIFSERPSLVEGWKVEKIQEIYLEALKAYVDNRRRPKSGTIFAKLLSVLTELRTLGNQNSEMCFSLKLKNKKLPPFLAEIWDVIPKLAPPTDVSLGDELHLDGEDVAMAHADALDDFDLDMLGDGDSPGPGFTPHDSAPYGALDMADFEFEQMFTDALGIDEYGG
B4: MBV: EcR chimera: Manduca sexta C+D domains, black cutworm (Agrotis ipsilon) E domain, VP16; SEQ ID NO:65-66 (protein)
chain: MGREELSPASSINGCSTDGEPRRQKKGPAPRQQEELCLVCGDRASGYHYNALTCEGCKGFFRRSVTKNAVYICKFGHACEMDMYMRRKCQECRLKKCLAVGMRPECVVPESTCKNKRREKEAQREKDKLPVSTTTVDDHMPAIMQCDPPPPEAARIHEVVPRFLTEKLMEQNRLKNVTPLSANQKSLIARLVWYQEGYEQPSEEDLKRVTQTWQSDEDEEESDMPFRQITEMTILTVQLIVEFAKGLPGFAKISQSDQITLLKACSSEVMMLRVARRYDAATDSVLFANNQAYSRDNYRKAGMSYVIEDLLHFCRCMYSMMMDNVHYALLTAIVIFSDRPGLEQPLLVEEIQRYYLNTLRVYILNQNSASPRCPVVFAKILGILTELRTLGMQNSNMCISLKLKNRKLPPFLEEIWDVESRGKLAPPTDVSLGDELHLDGEDVAMAHADALDDFDLDMLGDGDSPGPGFTPHDSAPYGALDMADFEFEQMFTDALGIDEYGG
B5: MEV: EcR chimera: Manduca sexta C+D domains, European corn borer (Ostrinia nubilalis) E domain, VP16; SEQ ID NO:67-68 (protein)
chain: MGREELSPASSINGCSTDGEPRRQKKGPAPRQQEELCLVCGDRASGYHYNALTCEGCKGFFRRSVTKNAVYICKFGHACEMDMYMRRKCQECRLKKCLAVGMRPECVVPESTCKNKRREKEAQREKDKLPVSTTTVDDHMPAIMQCDPPPPEAARIHEVVPRFLTEKLMEQNRLKNVTPLSANQKSLIARLVWYQDGYEQPSEEDLKRVTQTWQSADEEDEDSDMPFRQITEMTILTVQLIVEFAKGLPGFSKISQPDQITLLKACSSEVMMLRVARRYDAVSDSVLFANNQAYTRDNYRKAGMAYVIEDLLHFCRCMYSMSMDNVHYALLTAIVIFSDRPGLEQPQLVEEIQRYYLNTLRVYIMNQHSASPRCAVIYAKILSVLTELRTLGMQNSNMCISLKLKNRKLPPFLEEIWDVKLAPPTDVSLGDELHLDGEDVAMAHADALDDFDLDMLGDGDSPGPGFTPHDSAPYGALDMADFEFEQMFTDALGIDEYGG
B6: MFV: EcR chimera: Manduca sexta C+D domains, fall armyworm (Spodoptera frugiperda) E domain, VP16; SEQ ID NO:69-70 (protein)
chain: MGREELSPASSINGCSTDGEPRRQKKGPAPRQQEELCLVCGDRASGYHYNALTCEGCKGFFRRSVTKNAVYICKFGHACEMDMYMRRKCQECRLKKCLAVGMRPECVVPESTCKNKRREKEAQREKDKLPVSTTTVDDHMPAIMQCDPPPPEAARIHEVVPRFLTEKLMEQNRLKNVTPLSANQKSLIARLVWYQEGYEQPSEEDLKRVTQTWQLEEEEEEETDMPFRQITEMTILTVQLIVEFAKGLPGFSKISQSDQITLLKASSSEVMMLRVARRYDAATDSVLFANNQAYTRDNYRKAGMSYVIGDLLHFCRCMYSMSMDNVHYALLTAIVIFSDRPGLEQPLLVEEIQRYYLKTLRVYILNQYSASPRCAVLFGKILGVLTELRTLGTQNSNMCISLKLKNRKLPPFLEEIWDVKLAPPTDVSLGDELHLDGEDVAMAHADALDDFDLDMLGDGDSPGPGFTPHDSAPYGALDMADFEFEQMFTDALGIDEYGG

System: pCGS154 reporter
Experiment: Transient transfection of S2 Drosophila cells with luciferase reporter and EcR receptor plasmids
Assay type: cell-based
Method: An in vivo cell based assay is designed to measure transcriptional activation by the receptors of a reporter plasmid. S2 Drosophila cells (ATCC CRL-1963) are transiently transfected with luciferase reporter and receptor expression plasmids using the calcium phosphate precipitation procedure (Di Nocera and David (1983) PNAS 80, 7095-7098). S2 cells are plated in 96 well format at a density of 2×10^5 in 166.6 μl of Schneider's Drosophila media supplemented with antibiotics and 10% heat inactivated fetal bovine serum (GIBO-BRL). The following day, 33.4 μl of a calcium phosphate precipitate containing 3-6 ng of pCGS154 reporter plasmid, 3-6 ng of EcR receptor plasmid along with salmon sperm DNA to a total of 400 ng DNA per well is added. Chemical ligands are added 16-24 hours after DNA addition to the cells. Cells are then harvested and extracted 24 hours after chemistry addition following the procedures for the luciferase assay by centrifuging and resuspending the cell pellets in 100 μl of cell culture lysis reagent (Promega). Luciferase activity is quantitated using chemiluminescence (Promega) using an analytical luminescence model 2001 luminometer.
S2 cells contain Drosophila EcR and USP. The endogenous USP can be used as the heterodimerization partner for EcR or exogenous USP expression plasmid can be added to the assay.
To compare the activities of Manduca and Drosophila EcR, S2 cells are transiently transfected using the above procedure with the reporter plasmid pCGS 154 and either full-length Drosophila EcR, DDV, full-length Manduca EcR, or MMV. Tebufenozide at 0.2 µM and 2 μM is used as the chemical ligand. Luciferase assays are performed as described above. All of the results are normalized as a ratio of activity to the light unit value for the pCGS154 reporter without chemistry.
The activities of the EcR-VP16 chimeras are compared by transiently transfecting S2 cells as described in Example 3. Tebufenozide is added to the cells at 0.2 μM concentration. Results are expressed as fold activation, a ratio of the activity of the constructs with chemistry added as compared to activity of the constructs without chemistry. All results are normalized to the luciferase activity of the pCGS154 reporter without receptor addition.
(§1) The activities of the EcR-VP16 chimeras are compared by transiently transfecting S2 cells as in Example 3. Tebufenozide is added to the cells at 0.2 μM concentration. Results are expressed as fold activation of constructs with chemistry as compared to without chemistry. All results are normalized to the luciferase activity of the pCGS154 reporter without receptor.
as §1, with “chemistry addition.” for “chemistry.”

[1] = Example 6, 0.2 μM tebufenozide vs without chemistry, normalized to pCGS154 reporter without receptor

Molecule | Assay # 1 Fold Activation With Chemistry [1] | Assay # 2 Fold Activation With Chemistry [1] | Fold Activation With Chemistry Assay #1 (Example 7, 0.2 μM tebufenozide) | Fold Activation With Chemistry Assay #2 (Example 7, 0.2 μM tebufenozide) | Fold Activation With Chemistry (Example 6, third column (LLV, LMV), 0.2 μM tebufenozide) | Fold Activation With Chemistry Assay #1 (Example 8, 0.2 μM tebufenozide) | Fold Activation With Chemistry Assay #2 (Example 8, 0.2 μM tebufenozide)
B1 | 1.20 fold | 1.18 fold | 1.1 fold | 1.1 fold | – | – | –
B2 | – | – | – | – | 0.47 fold | – | –
B3 | – | – | 1.7 fold | 1.0 fold | – | – | –
B4 | – | – | 215.7 fold | 211.1 fold | – | 559.1 fold | 866.7 fold
B5 | – | – | 363.7 fold | 131.5 fold | – | – | –
B6 | – | – | 159.9 fold | 175.4 fold | – | – | –
